# Laboratory results published in article PMC7211993.
# Molecular target: MDA-modified bovine serum albumin (bovine), P02769
# Assay: MST; microscale thermophoresis with both binding partners in fluid phase
# Conditions: remark: other sources report otherwise
# Sequence of MDA-modified bovine serum albumin (bovine), P02769 (P02769 25-607): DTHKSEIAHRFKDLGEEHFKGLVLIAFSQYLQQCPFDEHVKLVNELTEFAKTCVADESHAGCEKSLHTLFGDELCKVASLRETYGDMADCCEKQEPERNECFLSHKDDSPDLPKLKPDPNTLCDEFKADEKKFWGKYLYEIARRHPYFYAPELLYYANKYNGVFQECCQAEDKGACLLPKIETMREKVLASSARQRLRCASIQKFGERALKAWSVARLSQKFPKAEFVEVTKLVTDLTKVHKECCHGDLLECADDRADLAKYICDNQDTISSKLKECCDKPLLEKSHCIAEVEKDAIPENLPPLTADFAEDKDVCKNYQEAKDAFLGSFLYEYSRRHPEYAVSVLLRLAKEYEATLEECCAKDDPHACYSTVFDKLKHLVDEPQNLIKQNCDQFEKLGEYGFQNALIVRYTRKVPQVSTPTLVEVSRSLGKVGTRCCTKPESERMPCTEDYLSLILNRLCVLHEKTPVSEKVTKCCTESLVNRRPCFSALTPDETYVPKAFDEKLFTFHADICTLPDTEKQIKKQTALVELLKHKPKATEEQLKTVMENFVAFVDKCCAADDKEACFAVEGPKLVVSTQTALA
binder,measurement,value
"complement factor H, P08603 19-1231 (natural protein, here or on the partner: malondialdehyde-acetaldehyde (MAA) / malondialdehyde (MDA) adducts; sites not stated) EDCNELPPRRNTEILTGSWSDQTYPEGTQAIYKCRPGYRSLGNVIMVCRKGEWVALNPLRKCQKRPCGHPGDTPFGTFTLTGGNVFEYGVKAVYTCNEGYQLLGEINYRECDTDGWTNDIPICEVVKCLPVTAPENGKIVSSAMEPDREYHFGQAVRFVCNSGYKIEGDEEMHCSDDGFWSKEKPKCVEISCKSPDVINGSPISQKIIYKENERFQYKCNMGYEYSERGDAVCTESGWRPLPSCEEKSCDNPYIPNGDYSPLRIKHRTGDEITYQCRNGFYPATRGNTAKCTSTGWIPAPRCTLKPCDYPDIKHGGLYHENMRRPYFPVAVGKYYSYYCDEHFETPSGSYWDHIHCTQDGWSPAVPCLRKCYFPYLENGYNQNYGRKFVQGKSIDVACHPGYALPKAQTTVTCMENGWSPTPRCIRVKTCSKSSIDIENGFISESQYTYALKEKAKYQCKLGYVTADGETSGSITCGKDGWSAQPTCIKSCDIPVFMNARTKNDFTWFKLNDTLDYECHDGYESNTGSTTGSIVCGYNGWSDLPICYERECELPKIDVHLVPDRKKDQYKVGEVLKFSCKPGFTIVGPNSVQCYHFGLSPDLPICKEQVQSCGPPPELLNGNVKEKTKEEYGHSEVVEYYCNPRFLMKGPNKIQCVDGEWTTLPVCIVEESTCGDIPELEHGWAQLSSPPYYYGDSVEFNCSESFTMIGHRSITCIHGVWTQLPQCVAIDKLKKCKSSNLIILEEHLKNKKEFDHNSNIRYRCRGKEGWIHTVCINGRWDPEVNCSMAQIQLCPPPPQIPNSHNMTTTLNYRDGEKVSVLCQENYLIQEGEEITCKDGRWQSIPLCVEKIPCSQPPQIEHGTINSSRSSQESYAHGTKLSYTCEGGFRISEENETTCYMGKWSSPPQCEGLPCKSPPEISHGVVAHMSDSYQYGEEVTYKCFEGFGIDGPAIAKCLGEKWSHPPSCIKTDCLSLPSFENAIPMGEKKDVYKAGEQVTYTCATYYKMDGASNVTCINSRWTGRPTCRDTSCVNPPTVQNAYIVSRQMSKYPSGERVRYQCRSPYEMFGDEEVMCLNGNWTEPPQCKDSTGKCGPPPPIDNGDITSFPLSVYAPASSVEYQCQNLYQLEGNKRITCRNGQWSEPPKCLHPCVISREIMENYNIALRWTAKQKLYSRTGESVEFVCKRGYRLSSRSHTLRTTCWDGKLEYPTCAKR",Kd,2440 nM
